In US20260167721A1 (ABLEXIS, published 2026):

Columns and labels:
recombinant CD3 proteins [1] = molecular target: T1, recombinant CD3 proteins (UniProt P07766 23-126); experiment: Octet BLI, recombinant CD3; Full R^2 0.9554
T1 construct: elsewhere it uses human CD3 E/D and E/G heterodimers

recombinant CD3 proteins [2] = molecular target: T1, recombinant CD3 proteins; experiment: Octet BLI, recombinant CD3; Full R^2 0.603*
recombinant CD3 proteins [3] = molecular target: T1, recombinant CD3 proteins; experiment: Octet BLI, recombinant CD3; Full R^2 0.974
recombinant CD3 proteins [4] = molecular target: T1, recombinant CD3 proteins; experiment: Octet BLI, recombinant CD3; Full R^2 0.990

T1 sequence (P07766 23-126): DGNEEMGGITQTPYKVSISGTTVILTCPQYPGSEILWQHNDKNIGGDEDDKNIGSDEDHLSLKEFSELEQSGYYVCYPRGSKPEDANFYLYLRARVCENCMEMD

B1: CD3 × CD33-BspAb98 (bispecific antibody)
chain 1: NFMLTQPHSVSESPGKTVTISCTRSSGSIASNYVQWYQQRPGSSPTTVIYEDNQRPSGVPDRFSGSIDSSSNSASLTISGLKTEDEADYYCQSYDSSNRVFGCGTKLTVLGGGGSGGGGSGGGGSGGGGSEVHLVESGGGLVKPGGSLRLSCAASGFTFSRYSMNWVRQAPGKCLEWVSSISRSSSYIYYADSVKGRFTISRDNAKNSLYLQMNSLRAEDTAVYYCAREPRTLGMDYWGQGILVTVSSDKTHTCPPCPAPEFEGGPSVFLFPPKPKDTLMISRTPEVTCVVVDVSHEDPEVKFNWYVDGVEVHNAKTKPREEQYNSTYRVVSVLTVLHQDWLNGKEYKCKVSNKALPASIEKTISKAKGQPREPQVYTLPPCREEMTKNQVSLWCLVKGFYPSDIAVEWESNGQPENNYKTTPPVLDSDGSFFLYSKLTVDKSRWQQGNVFSCSVMHEALHNHYTQKSLSLSPGK
chain 2: EVQLVQSGAEVKKPGSSVKVSCKASGYTITDSNIHWVRQAPGQSLEWIGYIYPYNGGTDYNQKFKNRATLTVDNPTNTAYMELSSLRSEDTAFYYCVNGNPWLAYWGQGTLVTVSSASTKGPSVFPLAPSSKSTSGGTAALGCLVKDYFPEPVTVSWNSGALTSGVHTFPAVLQSSGLYSLSSVVTVPSSSLGTQTYICNVNHKPSNTKVDKRVEPKSCDKTHTCPPCPAPEFEGGPSVFLFPPKPKDTLMISRTPEVTCVVVDVSHEDPEVKFNWYVDGVEVHNAKTKPREEQYNSTYRVVSVLTVLHQDWLNGKEYKCKVSNKALPASIEKTISKAKGQPREPQVCTLPPSREEMTKNQVSLSCAVKGFYPSDIAVEWESNGQPENNYKTTPPVLDSDGSFFLVSKLTVDKSRWQQGNVFSCSVMHEALHNRFTQKSLSLSPGK
chain 3: DIQLTQSPSTLSASVGDRVTITCRASESLDNYGIRFLTWFQQKPGKAPKLLMYAASNQGSGVPSRFSGSGSGTEFTLTISSLQPDDFATYYCQQTKEVPWSFGQGTKVEVKRTVAAPSVFIFPPSDEQLKSGTASVVCLLNNFYPREAKVQWKVDNALQSGNSQESVTEQDSKDSTYSLSSTLTLSKADYEKHKVYACEVTHQGLSSPVTKSFNRGEC
Kd (recombinant CD3 proteins [1]): 0.0051 µM
koff (recombinant CD3 proteins [1]): 0.00333 s⁻¹
kon (recombinant CD3 proteins [1]): 653000 M⁻¹ s⁻¹

B2: CD3 × CD33-BspAb99 (bispecific antibody)
chain 1: not shown
chain 2: EVQLVQSGAEVKKPGSSVKVSCKASGYTITDSNIHWVRQAPGQSLEWIGYIYPYNGGTDYNQKFKNRATLTVDNPTNTAYMELSSLRSEDTAFYYCVNGNPWLAYWGQGTLVTVSSASTKGPSVFPLAPSSKSTSGGTAALGCLVKDYFPEPVTVSWNSGALTSGVHTFPAVLQSSGLYSLSSVVTVPSSSLGTQTYICNVNHKPSNTKVDKRVEPKSCDKTHTCPPCPAPEFEGGPSVFLFPPKPKDTLMISRTPEVTCVVVDVSHEDPEVKFNWYVDGVEVHNAKTKPREEQYNSTYRVVSVLTVLHQDWLNGKEYKCKVSNKALPASIEKTISKAKGQPREPQVCTLPPSREEMTKNQVSLSCAVKGFYPSDIAVEWESNGQPENNYKTTPPVLDSDGSFFLVSKLTVDKSRWQQGNVFSCSVMHEALHNRFTQKSLSLSPGK
chain 3: DIQLTQSPSTLSASVGDRVTITCRASESLDNYGIRFLTWFQQKPGKAPKLLMYAASNQGSGVPSRFSGSGSGTEFTLTISSLQPDDFATYYCQQTKEVPWSFGQGTKVEVKRTVAAPSVFIFPPSDEQLKSGTASVVCLLNNFYPREAKVQWKVDNALQSGNSQESVTEQDSKDSTYSLSSTLTLSKADYEKHKVYACEVTHQGLSSPVTKSFNRGEC
Kd (recombinant CD3 proteins [2]): 0.0307 µM
koff (recombinant CD3 proteins [2]): 0.00421 s⁻¹
kon (recombinant CD3 proteins [2]): 137000 M⁻¹ s⁻¹

B3: CD3 × CD33-BspAb100 (bispecific antibody)
chain 1: EVQLVESGGGLVKPGGSLRLSCAASGFTFSNYYMNWVRQAPGKCLERVSSISSSSNYIYYADSVKGRFTISRDNAKNSLYLQMNSLRAEDTAVYYCARDRRELPLDYWGQGTVVTVSSGGGGSGGGGSGGGGSGGGGSSYELTQPPSVSVSPGQTARITCSGDALPKKYAYWYQQKSGQAPVLVIYEDSKRPSGIPERFSGSSSGTMATLTISGAQVEDEADYYCYSTDSSGNHWVFGCGTKLTVLDKTHTCPPCPAPEFEGGPSVFLFPPKPKDTLMISRTPEVTCVVVDVSHEDPEVKFNWYVDGVEVHNAKTKPREEQYNSTYRVVSVLTVLHQDWLNGKEYKCKVSNKALPASIEKTISKAKGQPREPQVYTLPPCREEMTKNQVSLWCLVKGFYPSDIAVEWESNGQPENNYKTTPPVLDSDGSFFLYSKLTVDKSRWQQGNVFSCSVMHEALHNHYTQKSLSLSPGK
chain 2: EVQLVQSGAEVKKPGSSVKVSCKASGYTITDSNIHWVRQAPGQSLEWIGYIYPYNGGTDYNQKFKNRATLTVDNPTNTAYMELSSLRSEDTAFYYCVNGNPWLAYWGQGTLVTVSSASTKGPSVFPLAPSSKSTSGGTAALGCLVKDYFPEPVTVSWNSGALTSGVHTFPAVLQSSGLYSLSSVVTVPSSSLGTQTYICNVNHKPSNTKVDKRVEPKSCDKTHTCPPCPAPEFEGGPSVFLFPPKPKDTLMISRTPEVTCVVVDVSHEDPEVKFNWYVDGVEVHNAKTKPREEQYNSTYRVVSVLTVLHQDWLNGKEYKCKVSNKALPASIEKTISKAKGQPREPQVCTLPPSREEMTKNQVSLSCAVKGFYPSDIAVEWESNGQPENNYKTTPPVLDSDGSFFLVSKLTVDKSRWQQGNVFSCSVMHEALHNRFTQKSLSLSPGK
chain 3: DIQLTQSPSTLSASVGDRVTITCRASESLDNYGIRFLTWFQQKPGKAPKLLMYAASNQGSGVPSRFSGSGSGTEFTLTISSLQPDDFATYYCQQTKEVPWSFGQGTKVEVKRTVAAPSVFIFPPSDEQLKSGTASVVCLLNNFYPREAKVQWKVDNALQSGNSQESVTEQDSKDSTYSLSSTLTLSKADYEKHKVYACEVTHQGLSSPVTKSFNRGEC
Kd (recombinant CD3 proteins [3]): 0.235 µM
koff (recombinant CD3 proteins [3]): 0.0831 s⁻¹
kon (recombinant CD3 proteins [3]): 354000 M⁻¹ s⁻¹

B4: CD3 × CD33-BspAb115 (bispecific antibody)
chain 1: NFMLTQPHSVSESPGKTVTISCTRTSGSIASNYVQWYQQRPGSSPTTVIYEDNQRPSGVPDRFSGSIDSSSNSASLTISGLKTEDEAAYYCQSYDRSNRVFGCGTKLTVLGGGGSGGGGSGGGGSGGGGSQVQLQESGPGLVKPSETLSLTCTVSGGSISSYYWSWIRQPAGKCLEWIGRIYTSGSTKYNPSLKSRVTMSVDTSKNQFSLKLISVTAADTAVYFCARERIRDLYFDYWGQGTLVTVSSDKTHTCPPCPAPEFEGGPSVFLFPPKPKDTLMISRTPEVTCVVVDVSHEDPEVKFNWYVDGVEVHNAKTKPREEQYNSTYRVVSVLTVLHQDWLNGKEYKCKVSNKALPASIEKTISKAKGQPREPQVYTLPPCREEMTKNQVSLWCLVKGFYPSDIAVEWESNGQPENNYKTTPPVLDSDGSFFLYSKLTVDKSRWQQGNVFSCSVMHEALHNHYTQKSLSLSPGK
chain 2: EVQLVQSGAEVKKPGSSVKVSCKASGYTITDSNIHWVRQAPGQSLEWIGYIYPYNGGTDYNQKFKNRATLTVDNPTNTAYMELSSLRSEDTAFYYCVNGNPWLAYWGQGTLVTVSSASTKGPSVFPLAPSSKSTSGGTAALGCLVKDYFPEPVTVSWNSGALTSGVHTFPAVLQSSGLYSLSSVVTVPSSSLGTQTYICNVNHKPSNTKVDKRVEPKSCDKTHTCPPCPAPEFEGGPSVFLFPPKPKDTLMISRTPEVTCVVVDVSHEDPEVKFNWYVDGVEVHNAKTKPREEQYNSTYRVVSVLTVLHQDWLNGKEYKCKVSNKALPASIEKTISKAKGQPREPQVCTLPPSREEMTKNQVSLSCAVKGFYPSDIAVEWESNGQPENNYKTTPPVLDSDGSFFLVSKLTVDKSRWQQGNVFSCSVMHEALHNRFTQKSLSLSPGK
chain 3: DIQLTQSPSTLSASVGDRVTITCRASESLDNYGIRFLTWFQQKPGKAPKLLMYAASNQGSGVPSRFSGSGSGTEFTLTISSLQPDDFATYYCQQTKEVPWSFGQGTKVEVKRTVAAPSVFIFPPSDEQLKSGTASVVCLLNNFYPREAKVQWKVDNALQSGNSQESVTEQDSKDSTYSLSSTLTLSKADYEKHKVYACEVTHQGLSSPVTKSFNRGEC
Kd (recombinant CD3 proteins [4]): 0.0162 µM
koff (recombinant CD3 proteins [4]): 0.00402 s⁻¹
kon (recombinant CD3 proteins [4]): 249000 M⁻¹ s⁻¹
